Measurements taken from publication PMC9789324 (Food Chemistry: Molecular Sciences, 2022).

Assays:
Assay in all cases: crystal structure
[1] = target: Len c 1, lentil vicilin (7S globulin) core region (Lens culinaris Medicus (lentil))
[2] = target: Pis s 1, pea vicilin (7S globulin) core region (Pisum sativum L. (pea))
crystal structure = target: the molecule itself

“Len c 1, lentil vicilin (7S globulin) core region (domain or fragment)” showed a stoichiometry N [1] of 3.

Molecule “Pis s 1, pea vicilin (7S globulin) core region (domain or fragment)” has a stoichiometry N [2] of 3.

B1: Pis s 2, pea convicilin (7S globulin) core region (domain or fragment, Pisum sativum L. (pea))
chain: SQERRNPFLFKSNKFLTLFENENGHIRLLQRFDKRSDLFENLQNYRLVEYRAKPHTIFLPQHIDADLILVVLSGKAILTVLSPNDRNSYNLERGDTIKLPAGTTSYLVNQDDEEDLRLVDLVIPVNGPGKFEAFDLAKNKNQYLRGFSKNILEASYNTRYETIEKVLLEEQEKDRKRRQQGEETDAIVKVSREQIEELKKLAKSSSKKSLPSEFEPINLRSHKPEYSNKFGKLFEITPEKKYPQLQDLDLFVSCVEINEGALMLPHYNSRAIVVLLVNEGKGNLELLGLKNEQQEREDRKERNNEVQRYEARLSPGDVVIIPAGHPVAITASSNLNLLGFGINAENNERNFLSGSDDNVISQIENPVKELTFPGSVQEINRLIKNQKQSHFANA
In the case of B1, the “stoichiometry N” value (crystal structure) is reported as 3.
